From the nanobody polyreactivity screen of Harvey et al. (2022)

Assay: yeast display, Sf9 membrane polyspecificity reagent, FACS + sequencing; frameworks hold sequencing errors
Method in brief: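 Sorting gates, low and high (top ~1%), were placed on anti-HA fluorescence to track expression and on streptavidin fluorescence to track reagent binding. A clone's polyreactivity label is taken from the gate it came out of. The reagent was 10% biotinylated, detergent-solubilized Sf9 membrane, applied for 1 hour at 4 °C to galactose-induced yeast display cells.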

Row | Sequence | polyreactivity (PSR sort gate)
1 | QVHLVESGGGVVQAGGSLRLSCAASGRIFHRYEMGWYRQAPVKERELVAAINWRTGNTYYADSVKGRFTISRDNAKNTVYLQMNSLKAEDTAVYYCNARYRSDYWGIQYDYWGQGTQVTVSS | high polyreactivity
2 | QVQLVESGGGLVQAGGSLRLSCAASGSTFVLDDMGWYRQAPGKERELDAAISYSGDSTNYAASVKGRFTISRDNAKNTVYLQMNSLKPEDTAVYYCNARQRTYYRTHRIRHKGNGYWGQGTQVTVSS | low polyreactivity
3 | QVQLVESGGGIVQAGGSLRLSCAASGRNFGPYTMGWYRQAPGKERELVATISYSGSTTYYSDSVKGRFTISRDNAKNTVYLQMNSLKPEDTAVYYCNAQYYVFITFDYWGQGTKVTVSS | high polyreactivity
4 | QVQLVESGGGLVQAGGSLRLSCAASGSTFVKNTMGWYRQAPGKERELVAAISSRGGSTYYADSVKGRFTISRDNAKNTVYLQMNSLKPEDTAVYYCNALGLYSRYQQGEYDYWGQGTQVTVSS | low polyreactivity
5 | QVQLVESGGGLVQAGGSLRLSCAASGFTFKGYAMGWYRQAPGKERELVAAITRGGSTYYADSVKGRFTISRDNAKNTVYLLMNSLKPEDTAVYYCAARGRGHGTTPNDYWGQGTQVTVSS | high polyreactivity
6 | QVQLVESGGGLVQAGGSLRLSCAASGSTFGVYAMGWYRQAPAKEMELVARITWSGGSTDYADSVKGRFTISRDNAKNTVYLQMNSLKPEDTAVYYCAARAWWDWYSPRWYYYWGQGTQVTVSS | high polyreactivity
7 | QVQLVESGGGLVQAGGSLRLSCAASGLTLRNSAMGWYRQAPGKERELVAAITTGGGRTYYADSVKGRFTISRDNAKNTVYLQMNSLKPEDTAVYYCAKKPSSARYVTIGFDYWGQGTQVTVSS | low polyreactivity
8 | QVQLEESGGGLVQAGGSLRLSCAASGRIFQYYVRGWYRQAPGKERELVAAITRRGTNTYYADSVKGRFTISRDNAKNTVYLQMHSLNPEETAVYYCAATYYWSGYPVKTTSDYWGQGTQITVSS | high polyreactivity
9 | QVQLVESGGGLVQAGGSLRLSCAASGSTFVFYAMGWYRQAPGKERELVAAITISGDITYYADSVKGRFTISRDNAKNTVYLQMNSLKPEDTAVYYCAADWHSWRWGYYYWGQGTQVTVSS | low polyreactivity
10 | QVQLEESGGGLVQAGGSLRLSCAASGLIFWAYAMGWYRQAPGKDTELVAAINWRGGSTYYADSVKGRFTISRDNAKNTVYLQMNSLKPEDTAVYFCAGDSSYDEYDYWGQGTQVTVSS | low polyreactivity
11 | QVQLVDSGGGLVQAGGSLRLSCAASGSIFVNNTMGWYRQAPGKERELVAAISSSGGSTYYADSVKGRFTISRDNAKNTVYLQMNSLKPEDTAVYYCAAVNGYQYPQYYYNGYDYWGQGTQVTVSS | low polyreactivity
12 | QVQLVESGGGLVQAGGSLRLSSAASGIFRWNTKGWYRQAPRKERELVATISWGGGTTYYADSVKGRFTISRDNAKNTVYLQMNSLKPEDTAVYYCAKVYAVRIGMRYSYWGHGTQVTVSS | low polyreactivity
13 | QVQLGESGGGLVQAGGSLRLTCAASGITFAYYVMGWYRKAPGKERELVAASTRSGDFTSYADSVKGRFTISRDNAKNTVYFQMNSLKPEDTAVYYCNARRGYQSRRYNYWGQGTQVTVSS | high polyreactivity
14 | QVQLVESGGGLVQAGGSLRLSCAASGSILHPNGMGWYRQAPGKERELVAAITINGDSTYYADSVKGRFTISRDNAKNTVYLQMNSLKPEDTAVYYFAVDGWPTGWYYYWGQGTQVTVSS | low polyreactivity
15 | QVQLVESGGGLVQAGVSLRISCAASGFIFYYYAMGWYRQAPGKERELVAAISWSGGSTYYADSVKGRFTISRDNAKNTVYLQLNSLKPEDTSVYYCNARFRYARYSQRYDYWGQGTQVTVSS | high polyreactivity
16 | QVQLVESGGGLVQAGGSLRLSCAASGSIFHYYAMGWYRQAPGKVRELVAAISSVGSTYYADSVKGRFTISRDYAKNTVYLQMNSLKPEDTAVYYCAAEAYAKRYVDRYSWYYYWGQGTQVTVSS | high polyreactivity
17 | QVQLVESGGGLVQAGGSLRLICAASGIIFSSNAMGWSRQAPGKERELVAAISNTGRTNYADSVKGRFTISRDNAKNTVYLQLNSLKPEDTAVYYCAARLSRRYYSYYYWGQGTQVTVSS | high polyreactivity
18 | QVQLVESGGGLVQAGGSLRLSCAASGRIFRAYAMGWYRQAPGKERELVAAISYRGGSTYYADSVKGRFTISRDNAKNTVYLQMNSLKPEDTAVYYCAADSDRSVWIYGYSGQGTQVTVSS | low polyreactivity
19 | QFQLVESGGGLVQAGGSLRLSCAASGSIFVLYAMGWYRQAPGKERELVAAITSAGSTYYADSVKGRFTISRDNAKNTVYLQMNSLKPEDTAVYYCAAGFYGYARHTWYNDWGQGTQVTVSS | high polyreactivity
20 | QVQLVESGGGLVQAGGSLRLSCAASGFTFTWYAMGLYRQAPGKERELVAAISSGGGRTYYADSVKGRFTISRDNAKNTVYLQMNRLKPEDTAVYYCNAVAGGVYVDNGYDYWGQGTQVTVSS | high polyreactivity
21 | QVQLVESGGGLVQAGGSLRLSCAASGSIFVRNAMGWYRQAPGKERELVAAITATGGRTYYADSVKGRFTISRDNAKNTVYLQMNSLKPEDTAVYYCAAYYPRSGYDYWGQGTQVTVSS | high polyreactivity
22 | QVQLVESGGGLVQAGGSLRLSCAASGRTFVFYAMGWYRQAPGKERELVAAITSSGRTKYADSVKGRFTISRDNAKNTVYLQMNSLKPEDTAVYYCAVLRWPGLDYYWGQGTQVTVSS | high polyreactivity

Row | Sequence | polyreactivity (PSR sort gate)
23 | QVQLVESGGGLVQAGGSLRLSCAASGSTFRYNAMGWYRQAPGKARELVAAITSGGGTNYADSVKGRFTISRDNAKNTVYLQMNSLNPEDTAVYYCAAPWGLGSELLKRDYWGQGTQVTVSS | low polyreactivity
24 | QVQLVESGGGLVQAGGSLRLSCAASGRTFARNAMGWSRQAPGKERELVAAITRSGGSTYYADSVKGRFTISRDNAKNTVYLQMNSLKPEDTAVYYCAAVGTGSSLRYGYWGQGTQVTVSS | high polyreactivity
25 | QVQLVESGGGLVQAGGSIRLSCASSGSTFTIYAMGWYRPAPGKERELVAAISGTGGTKYADSVKGRFTISRDNAKNTVYLQMNSLKPEDTAVYYCAVGLVPLRDGWHFYYEFDSWGQGTQVTVSS | low polyreactivity
26 | QVQLVESGGGLVQAGGSLRLSCAASGLTFNRNAMGWYRQAPGKERELVARISRGGSTNYADSVKGRFTISRDNAKNTVYLQMNSLKPEDTAVYYCAKRGNPRSVVHYNSWGQGTQVTVSS | high polyreactivity
27 | QVQLVESGGGLVQAGGSLRLSCAASGSTFTVYAMGWYRQAPGKERELVAAISWGGGSTNYADSVKGRFTISRDNAKNTVYLQMNSLKPEDTAVYYCNADIDVIIGSWGDYWGQGTQVTVSS | low polyreactivity
28 | QVQLVESGGGLVQAGGSHRLSCAASGSTFGSNAMGWYRQAPGKERELVAARTIGGSTNYADSVKGRFTISRDNAKNTVYLEMTSLKPEETAVYYCNADPQQSKLWTYFFGFPGYYWGQGTQVTVSS | low polyreactivity
29 | QVQLVESGGGLVQAGGSLRLSCAASGRIFPFYAMGWYRQAPGKETELVAVINASGGGTYYADSVKGRFTISRDNAKNTVYLQMNSLKPEDTAVYYCAATYSPFDFYYWGQGTQVTVSS | low polyreactivity
30 | QVQLVESGGGLVQAGGRLRLSCAATGRTFRTYVMGWYRQGPGKEREMFAAITWSAGRTYYADSVKGRFTISRDNAQNTVYLQMNSLKPEDTAVYYCATLPTYYLRSYGLDYWGQGTQVTVSS | high polyreactivity
31 | QVQLVESAGGLVQAGGSLRLSCAASGGIFFSYAMGWYRQAPGKERELVAAIRTNGGTTYYADSVKGRFTISRDNAKNNVYLQMNSLTPEDTAVYYCASLPGGYYDRGEYDYWGQGTQVTVSS | low polyreactivity
32 | QVQLVESGGGLVQAGGSLRLSCAASGTTFTRYAMGWYRQAPGKERELVAAISRTGGSRTYYADSVKGRFTISRDNAKNTVYLHMNSLKPEDTAVYYCAKGYWRYLGFLYFFPARDYWGQGTQVTVSS | high polyreactivity
33 | QVQLVESGGGLVQAGGSLRLSCAASGNTYDPNAMGWYRQAPGKERELVAAISSDGSTKYADSVKGRFTISRDNAKNTVYLQMNSLKPEDTAVYYCAADHGYWYWYGGDNSWGQGTQVTVSS | low polyreactivity
34 | QVQLVESGGGLVQAGGSLRLSCAASGRTIAAYAMGWYRQAPGKERELVAAISRSGGSTYYADSVKGRFTISRDNAKNTVYLQMNSLKPEDTAVYYCAAQRQYGKFDYWGQGTQVTVSS | high polyreactivity
35 | QVQLVESGGGLVQAGGSLRLSCAASGRTFTRYAMGWYRQAPGKERELVASISSRGTRTYYADSVKGRFTISRDNAKNTVYLQMNSLKPDDTAVYYCNVGFYPYYFLTYQGGDYWGQGTQVTVSS | high polyreactivity
36 | QVQLVESGGGLVQAGGSLRLSCAASGRTFHRYTMGWYRQAPGKERELVASISRSGGSTYYADSVKGRFTISRDNAKNTVYLQMNSLKPEDTAVYYCAARVSRRGTWYDYWGQGTQVTVSS | high polyreactivity
37 | QVQLVESGGGLVQAGGSLRLSCAASGSIFPYYAMGWYRQAPGKERELVARITWRSTSTYADSVKGRFTISRDNAKNTVYLQMNSLKPEDTAVYYCAVRLLSTYIIEYDHWGQGTQVTVSS | low polyreactivity
38 | QVQLVESGGGLVQAGGSLRLSCAASGRILADNAMGWYRQAPGKERELVAAISESGGSTYYADSVKGRFTISRDNAKNTVYLQMNSLKAEDTAVYYCAADTASIYYEYYYWGQGTQVTVSS | low polyreactivity
39 | QVQLVETGGGLVQAGGSLRLSCAASGRTFYYNGRGWYRQAPGKERELVAAITSGGTTSYADSVKGRFTISRDNAKNTVYLQMNSLKPEETAVYYCNADYWAVNYDYWGQGTQVTVSS | low polyreactivity
40 | QVQLVESGGGLVQAGGSLRLSCAASGRTFIWNAMGWYRQAPGKERELVADISIRGGSTNYADSVKGRFTISRDNAKNTVYLQMNSLKPEDTAVYYCAADYYDSGNDYWGQGTQVTVSS | low polyreactivity
41 | QVQLVESGGGLVQAGGSLRLSCAPSGSTFSGYAMGWYRQAPGKEREFVATISISGCSTYYADSVKGRFTISRDNAKNTVYLQMNSLKPEDTAVYYCAKDSGSYRVGIYEPFPYGYWGQGTQVTVSS | low polyreactivity
42 | QDQLVESGGGLVEAGGSLRLSCAASGRTFWLNAMGWYRQAPGKERELVATISSSSGSTTYADSVKGRFTSSRDNAKNTVYIQMNSLKPEDTAVYYCNVDDPFYSGVVEFDYWGQGTQVTVSS | low polyreactivity
43 | QVQLVESGGGLVQAGGSLRLSCAAYGRTFSWNAMGWYRQAPGKERELVAGITGRGRSTYYADSVKGRFTISRDNAKNTVYLQMIRLKPEDTAVYYCAARNWQALYYGYGYDYWGHGTQVTVSS | high polyreactivity
